Experimental data published in patent US20230030314A1, “Method for Diagnosing Cancer, Cancer Diagnosis Composition, Cancer Diagnosis Kit, Method for Evaluating State of Cancer, and Method for Screening Agents for Preventing and/or Treating Cancer” (Kyushu University, National University Corporation, priority 2019, published 2023).
Ends that are not written are not given here.

Biological target: T1, PKCα (Homo sapiens, UniProt P17252)
T1 construct: endogenous in cells; host or cells: KU-1, KU-7, T24, TCCSUP, UMUC-3 bladder cancer cells
Assay: Phosphorylation of substrate peptide in bladder cancer-derived culture cells, MALDI-TOF MS
Format: biochemical
Details: bladder cancer-derived culture cells KU-1, KU-7, T24, TCCSUP, UMUC-3 (0.2 mg/ml cells); 30 μM peptide, 100 μM ATP, 37° C., 60 minutes
Protocol: An α-cyano-4-hydroxycinnamic acid (CHCA) matrix (10 mg/ml) was prepared in 50% water/acetonitrile and 0.1% TFA. This matrix and a sample were mixed in a ratio of 20:1. The resultant specimen/matrix mixture in a total volume of 1 μl was applied on a sample plate, and the resultant was crystallized by drying. In this example, Auto Flex Speed manufactured by Bruker was used in positive or negative mode. An acceleration voltage was set to 20 kV, and extraction delay time was set to 100 ns. Typically, 100 laser shots were averaged to improve a signal/noise ratio. All spectra were analyzed with Flex Analysis software (Bruker). A phosphorylation percentage was defined as an ionic strength ratio between a phosphorylated substance and a non-phosphorylated substance, and was calculated in accordance with existing description (Kang, J. -H. et al., (2007) J. Am. Soc. Mass Spectrom. 18, 106-112; and Kang J. -H. et al., (2007) J. Am. Soc. Mass Spectrom. 18, 1925-1931). In order to examine whether or not the PKCα specific substrate peptide could be phosphorylated by bladder cancer, culture cells derived from 5 different bladder cancers (KU-1, KU-7, T24, TCCSUP, and UMUC-3) were analyzed by MALDI-TOF MS. […] After performing incubation at 37° C. for 60 minutes, the resultant sample was analyzed by MALDI-TOF MS.

FKKQGSFAKKK-NH2 [substrate peptide]
phosphorylation percentage of the substrate peptide: high phosphorylation percentages
